Experiment [1] addresses CD38 (human) (UniProt P28907). In words: flow cytometry on KMS-12 cells. Background: In flow cytometry, cells or beads pass a laser one at a time.
In experiment [2] the target is CD38 (human) (UniProt P28907). As to the kind of experiment: flow cytometry on KMS-18 cells.

The values that follow come from patent US20250163144A1.

Take Anti-CD38 HIT2 mAb (antibody): the MFI in experiment [1] is 62.4 MFI; in experiment [2], 44.5 MFI.
